The record followed here is patent publication US6309872A, “Polypeptides having glucoamylase activity and nucleic acids encoding same” (Novozymes Biotech, Inc, priority 2000, dated 2001).

Substrate in the data set: OC[C@H]1O[C@H](O[C@H]2[C@H](O)[C@@H](O)[C@@H](O[C@H]3[C@H](O)[C@@H](O)C(O)O[C@@H]3CO)O[C@@H]2CO)[C@H](O)[C@@H](O)[C@@H]1O
Put plainly: purified protein, by the assay type. The note with it: other: maltotriose hydrolysis at pH 4, enzyme 11 μg/ml or 0.18 μM.

B1: Thielavia terrestris ATCC 20627 glucoamylase, wild type, recombinant (expressed in Aspergillus oryzae), SEQ ID NO:2 (Thermothielavioides terrestris NRRL 8126) (protein)
chain: PEASRVRREGEVVKRSVDSFIATESPIALSNLLCNIGSTGCHASGVASGIVVASPDKTNPDYWYTWTRDSALTFKCVVDTFTNSYDASLQAEIQNYIVAQAHLQGVSNPSGSLSDGSGLGEPKFNVDMSQFTGAWGRPQRDGPALRAIALIAYSKWLISNGYTSTASSIVWPVIKNDLAYVAQYWNNTGFDLWEEVSGSSFFTVANQHRALVEGAALATSLGTSCSACSAVAPQILCFLQSFWSPSSGYILANINENNGRSAKDANTLLGSIHTFDPAAGCDAATFQPCSDRALANHKVVTDAFRSIYSINSGIAEGSAVAVGRYPEDSYFGGNPWYLNTLAAAEQLYDALYVWKKQGSITVTSTSLAFFKDFSSSITPGTYSSSTSTYTTLYNAISAYADGYMNIVAQYAQTNGSLSEQFSKTNGEPLSAYDLTWSYAAFLTAAARRAGVVPPSWGAASANSVPAQCSATSVVGSYTSATATSFPPSQTPASSTSAGSSPASSTTATATACSTPTAVAVTFNERVTTQWGQTIKVVGDAAALGGWDTSKAVPLSAAGYTASDPLWSGTVDLPAGLAVQYKYINVAADGGVTWEADPNHSFTVPAACGTTAVTRDDTWQ
Regarding B1, the Km (commonly the substrate concentration at which the rate is half of its maximum) came out at 330 ± 70 µM and the kcat entry is given as “(5.5±0.5)×10^3 min^-1”.
